Where a chain is given by its changes, count along the chain named. Names may count otherwise.
Tests used:
[1] = target: T1, human IL-17A/A homodimer (human, UniProt Q16552 24-155); assay: Biacore SPR, 3 experiments; same value as Table 7; unit not printed in Table 10
T1 construct: also called hIL-17A/A
T1 sequence: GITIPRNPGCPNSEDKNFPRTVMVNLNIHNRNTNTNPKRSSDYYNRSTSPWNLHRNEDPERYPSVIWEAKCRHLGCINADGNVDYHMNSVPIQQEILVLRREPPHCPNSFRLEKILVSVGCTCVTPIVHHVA
Excerpt: (§1) The apparent association rate (ka) and dissociation rate (kd) were derived and used to calculate the overall equilibrium dissociation constant (KD) for the interaction.

[2] = target: T2, human TNF-α (human, UniProt P01375 77-233); assay: as above
T2 construct: also called hTNF-α; hTNF
T2 sequence (P01375 77-233 limits assumed): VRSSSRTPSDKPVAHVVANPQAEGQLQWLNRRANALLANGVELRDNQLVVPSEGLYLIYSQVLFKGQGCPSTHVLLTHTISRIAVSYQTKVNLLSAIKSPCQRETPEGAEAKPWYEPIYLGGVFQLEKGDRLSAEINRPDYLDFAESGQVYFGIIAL
Excerpt: as §1

[3] = target: T2, human TNF-α; assay: assay not stated; rounded figure in the dose-selection text, assay not stated
[4] = target: T1, human IL-17A/A homodimer; assay: Biacore SPR, recombinant antigen, mean of 3 experiments
Excerpt: as §1

[5] = target: T3, human IL-17A/F heterodimer (human, UniProt Q16552 24-155; Q96PD4 31-163); assay: as above
T3 construct: also called hIL-17A/F
T3 sequence 1: T1 sequence
T3 sequence 2: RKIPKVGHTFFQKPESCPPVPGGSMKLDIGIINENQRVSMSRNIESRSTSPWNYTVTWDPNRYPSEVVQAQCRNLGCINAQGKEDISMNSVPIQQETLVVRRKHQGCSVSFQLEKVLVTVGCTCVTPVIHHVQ
Excerpt: as §1

[6] = target: T2, human TNF-α; assay: as above
Excerpt: as §1

[7] = target: T4, mouse TNF (mouse, UniProt P06804 80-235); assay: cell-based or functional assay
T4 sequence (looked up): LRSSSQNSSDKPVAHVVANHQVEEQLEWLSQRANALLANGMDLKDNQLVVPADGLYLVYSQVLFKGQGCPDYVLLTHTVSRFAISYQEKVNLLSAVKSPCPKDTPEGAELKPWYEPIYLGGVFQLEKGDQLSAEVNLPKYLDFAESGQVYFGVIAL

[8] = target: T5, rat TNF (rat, UniProt P16599 80-235); assay: cell-based or functional assay
T5 sequence (looked up): T4 sequence (looked up) with V22A, V58I, N91S, V96I, I117M, Q130L, F143I, A144T

[9] = target: T6, monkey (Rhesus/Cynomolgus) IL-17 (monkey (Rhesus/Cynomolgus), UniProt F6T3G5 24-155); assay: cell-based or functional assay
T6 sequence: T1 sequence with T3A, N17T, I77V, P104R

[10] = target: T1, human IL-17A/A homodimer; assay: cell-based or functional assay
[11] = target: T7, rat IL-17 (rat, UniProt Q61453 18-150, limits assumed); assay: cell-based or functional assay
T7 sequence (looked up): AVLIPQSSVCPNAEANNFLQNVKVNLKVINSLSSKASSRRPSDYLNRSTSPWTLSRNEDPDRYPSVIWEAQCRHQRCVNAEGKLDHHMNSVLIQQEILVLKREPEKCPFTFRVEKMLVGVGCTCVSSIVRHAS

[12] = target: T2, human TNF-α; assay: cell-based or functional assay
[13] = target: T8, mouse IL-17 (mouse, UniProt Q62386 26-158, limits assumed); assay: cell-based or functional assay
T8 sequence (looked up): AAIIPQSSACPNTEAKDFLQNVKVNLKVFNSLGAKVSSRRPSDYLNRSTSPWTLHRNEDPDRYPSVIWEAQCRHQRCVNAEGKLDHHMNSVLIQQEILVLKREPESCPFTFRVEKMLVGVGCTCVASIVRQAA

[14] = target: T9, rabbit TNF (rabbit, UniProt P04924 80-235, limits assumed); assay: cell-based or functional assay
T9 sequence (looked up): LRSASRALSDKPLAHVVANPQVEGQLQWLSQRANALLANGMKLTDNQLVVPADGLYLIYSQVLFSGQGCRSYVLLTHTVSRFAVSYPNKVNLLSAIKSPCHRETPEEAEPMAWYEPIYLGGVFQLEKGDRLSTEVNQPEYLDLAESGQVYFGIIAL

[15] = target: T10, monkey (Rhesus/Cynomolgus) TNF (monkey (Rhesus/Cynomolgus), UniProt P48094 77-233); assay: cell-based or functional assay
T10 sequence (P48094 77-233 limits assumed): as the sequence (P01375 77-233 limits assumed) above, with R44T, T72N, R138L counted along it

[16] = target: T8, mouse IL-17; assay: Biacore SPR, 3 experiments; unit not printed in Table 10
[17] = target: T10, monkey (Rhesus/Cynomolgus) TNF; assay: as above

B1: ABBV-257 anti-human TNF and IL-17 DVD-Ig binding protein (bispecific antibody, human IgG1, kappa, L234A L235A)
heavy: EVQLVQSGAEVKKPGASVKVSCKASGYTFANYGIIWVRQAPGQGLEWMGWINTYTGKPTYAQKFQGRVTMTTDTSTSTAYMELSSLRSEDTAVYYCARKLFTTMDVTDNAMDYWGQGTTVTVSSGGGGSGGGGSEVQLVQSGAEVKKPGSSVKVSCKASGYTFTDYEIHWVRQAPGQGLEWMGVNDPESGGTFYNQKFDGRVTLTADESTSTAYMELSSLRSEDTAVYYCTRYSKWDSFDGMDYWGQGTTVTVSSASTKGPSVFPLAPSSKSTSGGTAALGCLVKDYFPEPVTVSWNSGALTSGVHTFPAVLQSSGLYSLSSVVTVPSSSLGTQTYICNVNHKPSNTKVDKKVEPKSCDKTHTCPPCPAPEAAGGPSVFLFPPKPKDQLMISRTPEVTCVVVDVSHEDPEVKFNWYVDGVEVHNAKTKPREEQYNSTYRVVSVLTVLHQDWLNGKEYKCKVSNKALPAPIEKTISKAKGQPREPQVYTLPPSREEMTKNQVSLTCLVKGFYPSDIAVEWESNGQPENNYKTTPPVLDSDGSFFLYSKLTVDKSRWQQGNVFSCSVLHEALHNHYTQKSLSLSPGK
light: DIQMTQSPSSLSASVGDRVTITCRASQDISQYLNWYQQKPGKAPKLLIYYTSRLQSGVPSRFSGSGSGTDFTLTISSLQPEDFATYFCQQGNTWPPTFGQGTKLEIKRGGSGGGGSGDIQMTQSPSSLSASVGDRVTITCRASSGIISYIDWFQQKPGKAPKRLIYATFDLASGVPSRFSGSGSGTDYTLTISSLQPEDFATYYCRQVGSYPETFGQGTKLEIKRTVAAPSVFIFPPSDEQLKSGTASVVCLLNNFYPREAKVQWKVDNALQSGNSQESVTEQDSKDSTYSLSSTLTLSKADYEKHKVYACEVTHQGLSSPVTKSFNRGEC
modifications: N-linked glycans on the heavy chain at the asparagine commonly modified on IgG1 antibodies (fucosylated biantennary oligosaccharides with 0, 1 or 2 galactose residues)
notes: It says the constant region carries L234A, L235A and also T250Q and M428L; also called Anti-IL-17/TNF DVD-Ig Protein
[1]
  Kd: 0.003 nM
[2]
  Kd: 0.0049 nM
[3]
  Kd: 0.005 nM
[4]
  Kd: 0.003 nM
  koff: 3e-06 s⁻¹
  kon: 1.1e+06 M⁻¹ s⁻¹
[5]
  Kd: 0.014 nM
  koff: 4.8e-06 s⁻¹
  kon: 340000 M⁻¹ s⁻¹
[6]
  Kd: 0.0049 nM
  kon: 3.3e+06 M⁻¹ s⁻¹
[7]
  IC50, in vitro neutralization assay (In-Vitro Potency): > 1000 nM
[8]
  IC50, in vitro neutralization assay (In-Vitro Potency): > 1000 nM
[9]
  IC50, in vitro neutralization assay (In-Vitro Potency): 0.032 nM
[10]
  IC50, in vitro neutralization assay (In-Vitro Potency): 0.026 nM
[11]
  IC50, in vitro neutralization assay (In-Vitro Potency): 0.135 nM
[12]
  IC50, in vitro neutralization assay (In-Vitro Potency): 0.025 nM
[13]
  IC50, in vitro neutralization assay (In-Vitro Potency): 0.239 nM
[14]
  IC50, in vitro neutralization assay (In-Vitro Potency): > 1000 nM
[15]
  IC50, in vitro neutralization assay (In-Vitro Potency): 0.025 nM
[16]
  Kd: 0.072 nM
[17]
  Kd: 0.024 nM

Reference: patent US20160002326A1 (AbbVie / Abbott, published 2016)
